Earlier results on four substances are cited in paper PMC5336612, “Therapeutic effects of different doses of polyethylene glycosylated porcine glucagon-like peptide-2 on ulcerative colitis in male rats” (BMC Gastroenterology, 2017).

Where two headings read alike, the source gives them in different places.

For data set [1] the following is noted: in vivo, cited from earlier work.
For data set [2] the following is noted: rat, in vivo; cited from earlier work.
Details of data set [3]: method as in PMID 19773525. The note with it: patient; cited from earlier work.
For data set [4] the following is noted: in vivo; cited from earlier work.

Consider “PEG(2 k)-Lys-GLP-1: PEGylated glucagon-like peptide-1 of Lee et al.”, for which the half-life increase in data set [1] (iv) was 16 fold; in data set [1] (sc), 3.2 fold.
As usually defined, the half-life is how long it takes for the measured level to halve. For “HGDGSFSDEMNTVLDNLATRDFINWLLHTKITDSL [p[Gly^2]GLP-2, Porcine [Gly^2] GLP-2]”, in data set [2], the half-life is 0.817 h.
Take teduglutide: the t1/2 in data set [3] is 2.99 h.
Regarding “porcine glucagon-like peptide-2 (HADGSFSDEMNTVLDNLATRDFINWLLHTKITDSL; Glucagon-like peptide 2; UniProt P01274 146-180, looked up) [pGLP-2]”, the “half-life of intact pGLP-2” value in data set [4] is 8.4 min.
